In a protein production outcome set (Wang et al. 2014) one finds protein production data, which are given here for 15 sequences.

The data set is described as follows: label from the status in PepcDB records.

For the sequence “MWSGVVTERKISRRLRLIKRVREEYVRDDVSCGFECCGGPCRASGKASVFAIPDANVVSRYRALLKSDYVAAIICQSVLSELSKNDERGLRDVARERGYPVFCDSFCRSTHGKGLEGVLEFYRAHLPQHNFTILDIGNIGEYGRYVSDDIRDLLENVDEKEATEYEEYVENLDILYGRKGLYRGTLEVSMYNCYSGFVVDGDVKVLVVGKKNMNRALSGDEVYVEVVDEYDEDGILLDNEEGTQETRKGAAGEGVFGKVVGIHRRKCRAVIGSISPRTVHGDGAQNVLVIPIDRRIPAIRIRTSQAEELMNKRLCVEIDGWERTSNYPSGHYYRRLGTLGDRNAEMEAVLVANGITYYNKNWAEILRVPWMNEDIFGMEKAYNEVREGTREDFRELSIVSIDPPDCEDIDDALHCRLLPNGNWEVGVHIADVTYYVTKGSEIDKIAADRGTTIYLPEWRIDMLPPALSTDLCSLVAGKDRAAFSVVWEMSSDVRVVRTHFCRSLIRSKRSFSYNEAYDAVQGLVDAGDEVSRSLRMLLEISRVLRSRRFAKGSLDLSTRQLVFREGGFEMKEYFPTNFLVEEFMVLANISVASFIYHHHPDSSLLRKHPPPSVLDIGLDIDTSSPRALSESLEKMEGVRKDLAKRMLIRSMNQAVYVVSGETPSLHHYGLATPIYTHFTSPIRRYADIIVHRILNHILQTAPTKEAQINKLGIVTFRARKRTDGESMDEVFVDEDMCRNMNSRHRAARKAAWECDKLTVYMALRNEEPVVRGFVTNIKPNGIVVYVPEYSLEEVVVSEGCFEMFQEVWVKIRRDDEKFFLRRRFTFEIVGLSSPC”, the protein production result is “failed”.

Take “MWYDYRFCAYPDRTGVAAEAERHIDIHRQAYNHTRYEYNALDTDEDNIGSAYQHQKRLTEWKDEWSVFSEVHSKALQKTVERFYDNLSNLSEKKQNGHKVGWLKWKPPREYQSVTYSQSGFELKNTSGRTATLWLSKIGDIPIRYHRPIPDNATIKEVTLKKETTGEWYVTFGLEVEDTTLPEKPDVDDLDAEDCVGIDLGITNYIYTSDGDSVDWLNLSDEYERLRREQRNLSRKEHRSNNWKKQRREVAKVKRRIKRKVEDFQHKLTTWLVKTYDAVFVEDLNVSGMLQQRGNARNKQDAAWRGFINMLEYKGDLYGTHVVQVNPAGTTKECAECGVETEKPLWVREHSCPSCGFEADRDANASYNVLSRGLRELGLGQAEVTPVETATAVETDGGRSSSVPASRVIETGSLGVVRKTESSVMTRDEVPRTT”: the protein production result is “failed”.

For “MWYSTVRNPSIALIKQGYHILAEYNLVKEELKNIYAIPSYACGLHWFGVIFVHSGIYAGSVFRFSILLPENFPADISLPTVVFSTEVLHPHICPQNKTLDLAHFLNEWRKDEHHIWHVLRYIQAIFADPEGSICTGQSSSGDLVIMDEVRNMNALNMLAKSRPEYIKRVQEQAILSRNLIYDRPPTEDPHYIIVEPYCAERHLKFMDQLKSPCWKEATSMDCSQPSEYLGHIDSSRQLDEEEANQVEKLHRGRIPEHQREESEVSL”, the protein production entry is on record as “failed”.

On to “MYAPERQQEILRLARDGGRVDVVSLAEEFQVTAETIRRDLKALDRAGLLRRVHGGAIPAGRLDFEPDLAERESTAADEKDRIARAALAELPAEGTLILDAGSTVARMAAAIPPDASLTVVTHSLPIAARLADHPGIQLHIVGGRVRHRTRAAVDAWALRAYGEIRADVAVVAANGFSVEHGLTTPDLAEAAVKRAALTAARRVVLLADSSKYAQEHFARFGALGDVDLLITDQGLTPEDAGDIERAGTEVVRA”, for which the protein production entry is “failed”.

Turning to “MYEIPWSKPVNINMLDGRCRTVVGPLDAMHCLQSEWPVRDGAYYGCAIRACNAALKRRKRPEDARAAFIAALREAFLTVVPMQEEGHGPRPLE”, the protein production entry is given as “not failed”.

Consider “MYFVDRSKIEKTLGFFEHQLALFDSQTDWQSEIGELALQRIGHLLIECILDTGNDMIDGFIMRDPGSYDDIMDILVDEKVVTEKEGDELKKLIAYRKTLVQQYLLADSGELYRLIKAHQTALQDFPKRIRSYLETELGPVSAFK”, for which the protein production entry was “not failed”.

With “MYGGIYVNNGYSPMSSNQQNVSVEHDIIMRGRRVIDITGVKQVESFDSEEFLLETVMGFLTIRGQNLQMKNLDVEKGVVSIKGKVHEMLYIDENQGEKTKGFFSKLFKLEHHHHHH”, the protein production entry is listed as “not failed”.

Take “MYIHLGDDFVVSTREIVAIFDYKAKTSPIVEEFLSKQKQRIVSSNSTPKSIVVTLQSIYFSPLASGTLKKRAQSKPEIDSLEHHHHHH”: the protein production entry is on record as “failed”.

Take “MYIICSQFSASEPVNPYALLGAAIVSELLGTTSLKLSEGFSRPVPSLGVVVGYGLAFYLVSLTLEDLPIGVVYGTWAALGIVGVAAIGIVVFDEPIDLPGAVGILLIIIGVYCVNVLSEMSAH”: the protein production entry is given as “failed”.

“MYKILEKKEIAMRNTWYKVYAPHVAKKVQPGQFVIVRAFPNGERIPLTPVMWDREEGWIVLIVFTRGKTTMRMAVELKEGDSLLNVAGPLGTPVPMEKFGKILAIGAYTGIVEVYPIAKAWQEIGNDVTTLHVTFEPMVILKEELEKAVTRHIVEPVPLNPNQDFLANMKNVSQRLKEKVRELLESEDWDLVFMVGPVGDQKQVFEVVKEYGVPMKVDLHPIMVDGTGMCGACRVTVGGEVKFACVDGPEFDAYQVDWDELIHRVGFYAKLEKLALEKYMEELKAKGVILEHHHHHH”: the protein production entry is “failed”.

Turning to “MYKNILILGRGIGQVMFQNNALSGGLMLLGIAFNSWQLAVLSVLGTVVSTLTASLSGYDKEDIRNGLYGFNGTLVGIAIGVFMEINVTSILLLISGSAFSTWVARCFRYQNRVSGLTAPFIFVVWLLLVGCHYLYPSLLLSSSLEKPELTMDIFRSFCLNIGQVMFQGNILSGLFFLLGILINSRMNALYTLTGAILPLFMILYPHTDLAAWNLGLLGYNGVLCAIALGDKTGIGVVKAIFSIILSIVLQLTGMHMGIVTLTAPFVFSVWITGGLFSVFRSKS”, the protein production result was “failed”.

As for “MYLEKINSPEDVKKLSIDEMKDLSTEIREVLLKKLSEHGGHIGPNLGIVELTIALHYVFNSPKDKIVYDVSHQSYIHKMLTGRKEAFINSEKYDEVSGYSNPEESEHDFFNIGHTSTSISLACGLAKARDVKDETDNVIAIIGDGSLSGGEAYEGLNNAAETGTNMIIIVNDNDMSIAENHGGLYKNLKELRDTEGKSECNFFKAMGLDYHYVKDGHDLEQLIGVFNKVKDTKQPVVVHIHTVKGKGFKFAEKNKEQWHWGMPFVLETGASKVSMGSAENYGNLTGEYLLDYMKRDPKVVAITSGTPAVFGFWKERRNEAGRQFVDVGIAEEHAVALASGIAANGGNPVYGVYSTFLQRTYDQLSQDLCINNNPAVLLVFAASVYGMNDVTHLGLYDIGMMSNIPNMVYLAPTCKEEYFAMLKWAMIQKDHPVAIRVPAMGVIESGVVDNTDYSKLNKYEVTKAGKDVAVIALGDFYQLGQSVTEKLSQENGINATLINPKYITGIDEELLEGLKKEHKLVITLEDGILDGGFGEKIARYYGASDMKVLNYGIKKELLDRYVPDELMKKNRLTDVQIVEDIMNIIK”, the protein production entry is listed as “failed”.

For “MYLKELSMMPGVSGDEGKVRDFIKSKIEGLVDNLYTDVLGNLIALKRGRDSSKKLLVSAHMDEVGFVVSKIEKDGKVSFLPVGGVDPRILPGKVVQVKNLKGVIGYRPIHLQRDEENTPPRFENLRIDFGFSSADEAKKYVSIGDYVSFVSDYIEKNGRAVGKAFDDRAGCSVLIDVLESGVSPAYDTYFVFTVQEETGLRGSAVVVEQLKPTCAIVVETTTAGDNPELEERKWATHLGDGPAITFYHRGYVIPKEIFQTIVDTAKNNDIPFQMKRRTAGGTDAGRYARTAYGVPAGVISTPARYIHSPNSIIDLNDYENTKKLIKVLVEEGKIVEVVS”, the protein production result is given as “not failed”.

For “MYLPTHFKQENQAELFDLIEHHPLGTLIVMHADGLEVNHIPFELDRLHLPAGILRGHIAKANPLASLLSEPQSAYVIFQAEQHYISPNWYPGKQEHHRVVPTWNYRVVHATGQLSVIEDQKYLRGVLARLTRQHEADQPAPWRLSDAPADFIEQQLEKIMAIEFNIESIIGKFKLSQN”, the protein production entry is “failed”.

In the case of “MYLPTHFKQENQAELFDLIEHHPLGTLIVMHADGLEVNHIPFELDRLHLPAGILRGHIAKANPLASLLSEPQSAYVIFQAEQHYISPNWYPGKQEHHRVVPTWNYRVVHATGQLSVIEDQKYLRGVLARLTRQHEADQPAPWRLSDAPADFIEQQLEKIMAIEFNIESIIGKFKLSQNRSQADVAGVIAALNELEPQIANSIHKFYPK”, the protein production entry is on record as “failed”.
